Data as given in publication PMC10942449 (bioRxiv, 2024).

Key:
[1] = biological target: sc9–10 DS-Cav1 (respiratory syncytial virus subtype A, strain A2 | not stated) (UniProt P03420); assay: SEC
[2] = biological target: sc9–10 DS-Cav1-His6 (respiratory syncytial virus subtype A, strain A2 | not stated) (UniProt P03420); assay: SEC
[3] = biological target: sc9–10 DS-Cav1-His6 (respiratory syncytial virus subtype A, strain A2 | not stated) (UniProt P03420); assay: cross-linking
[4] = biological target: DS-Cav1 (respiratory syncytial virus subtype A, strain A2 | not stated) (UniProt P03420); assay: SEC
[5] = biological target: DS-Cav1-His6 (respiratory syncytial virus subtype A, strain A2 | not stated) (UniProt P03420); assay: SEC
[6] = biological target: DS-Cav1-His6 (respiratory syncytial virus subtype A, strain A2 | not stated) (UniProt P03420); assay: cross-linking
UFCM1 = UFCM1 (human metapneumovirus, …, UniProt Q1A2Z0, E80D | T127C | N153C | A185P); assay: ELISA
UFCM1-P2 = UFCM1-P2 (human metapneumovirus, …, UniProt Q1A2Z0, E80D | T127C | N153C | A185P | V155P); assay: ELISA

sc9–10 DS-Cav1 (from UniProt P03420 26-513) (domain or fragment)
stoichiometry N [1]: 3

sc9–10 DS-Cav1-His6 (from UniProt P03420 26-513) (domain or fragment)
stoichiometry N [2]: 3
stoichiometry N [3]: 3

DS-Cav1 (from UniProt P03420 26-513) (domain or fragment)
stoichiometry N [4]: 3

DS-Cav1-His6 (from UniProt P03420 26-513) (domain or fragment)
stoichiometry N [5]: 3
stoichiometry N [6]: 3

B1: MPE8 IgG (antibody, V domains shown)
VH: EVQLVESGGGLVKPGGSLRLSCAASGFTFSSYSMNWVRQAPGKGLEWVSSISASSSYSDYADSAKGRFTISRDNAKTSLFLQMNSLRAEDTAIYFCARARATGYSSITPYFDIWGQGTLVTVSS
VL: QSVVTQTPSVSGAPGQRVTISCTGSSSNIGAGYDVHWYQQLPGTAPKLLIYDNNNRPSGVPDRFSASKSGTSASLAITGLQAEDEADYYCQSYDRNLSGVFGTGTKVTVL
binding result (UFCM1): binds
binding result (UFCM1-P2): binds
